Measured values published in patent US20090022728A1 (RINAT NEUROSCIENCE, published 2009).

Assays:
Aβ1-40 peptide = target: T1, Aβ1-40 peptide; assay: ELISA, nonbiotinylated peptide on plate
T1 construct: synthetic peptide, not biotinylated; also called 1-40 (WT); beta amyloid 1-40
Method: ELISA was used for measuring binding of antibody 6G and variants to nonbiotinylated Aβ peptides. NUNC maxisorp plates were coated with 2.5 ug/ml of Aβ peptides in PBS pH 7.4 for more than 1 hour at 4° C. Plates were blocked with 1% BSA in PBS buffer pH 7.4. Primary antibody (from cell supernatants, serum containing anti-Aβ antibody, or purified full antibody or Fabs at desired dilution) was incubated with the immobilized Aβ peptides for 1 h at room temperature. After washing, the plates were incubated with secondary antibody, a HRP conjugated goat anti-human kappa chain antibody (MP Biomedicals, 55233) at 1:5000 dilution. After washing, bound secondary antibody was measured by adding TMB substrate (KPL, 50-76-02, 50-65-02). The HRP reaction was stopped by adding 1M phosphoric acid and absorbance at 450 nm was measured.
All amino acid substitutions of the variants shown in Table 8 are described relative to the sequence of 6G. Binding was determined by ELISA described above with nonbiotinylated Aβ₁₋₄₀ or Aβ₁₋₄₂ immobilized on the surface of an ELISA plate.

[1] = target: T2, biotinylated Aβ1-40 peptide (biotinylated (N-biotinylated in Example 7)); assay: SPR, Fab over Aβ1-40 on SA chip; kon may be assumed = 9TL (footnote 2)
T2 construct: captured on streptavidin (SA) chip; also called Biotinylated Aβ peptide 1-40; Aβ1-40 on SA chip
T2 sequence (peptide, as listed by the source): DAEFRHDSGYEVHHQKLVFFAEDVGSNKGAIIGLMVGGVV
Method: (§1) Affinities of 9TL Fab fragment and its variants Fab fragments were determined by Surface Plasmon Resonance (SPR) system (BIAcore 3000™, BIAcore, Inc., Piscaway, N.J.). SA chips (streptavidin) were used according to the supplier's instructions. Biotinylated Aβ peptide 1-40 was diluted into HBS-EP (10 mM HEPES pH 7.4, 150 mM NaCl, 3 mM EDTA, 0.005% P20) and injected over the chip at a concentration of 0.005 mg/mL. Using variable flow time across the individual chip channels, two ranges of antigen density were achieved: 10-200 response units (RU) for detailed kinetic studies and 500-600 RU for concentration studies and screening. […] HBS-EP buffer was used as running buffer for all the BIAcore assays. […] The concentrations of the Fab proteins were determined by ELISA and/or SDS-PAGE electrophoresis using a standard Fab of known concentration (determined by amino acid analysis). Kinetic association rates (kₒₙ) and dissociation rates (koff) were obtained simultaneously by fitting the data to a 1:1 Langmuir binding model (Karlsson, R. Roos, H. Fagerstam, L. Petersson, B. (1994). Methods Enzymology 6. 99-110) using the BIAevaluation program. Equilibrium dissociation constant (KD) values were calculated as koff/kₒₙ.
(§2) All amino acid substitutions of the variants shown in Table 3 are described relative to the sequence of 9TL. KD and other kinetic parameters were determined by BIAcore analysis described above with Aβ₁₋₄₀ immobilized on SA chip.

[2] = target: T2, biotinylated Aβ1-40 peptide; assay: SPR, Fab over Aβ1-40 on SA chip; KD=koff/kon
Method: as §1, §2

[3] = target: T2, biotinylated Aβ1-40 peptide; assay: SPR, Fab over Aβ1-40 on SA chip
Method: as §1, §2

T1 sequence (peptide, as listed by the source): as above

Row | Binder | A450 ELISA (Aβ1-40 peptide) | kon [1] | Kd [2] | koff [3]
1 | 6G light chain variant 5B (Q94G) (antibody, V domains shown) VH: QVQLVQSGAEVKKPGASVKVSCKASGYTFTTYAIHWVRQAPGQGLEWMGFTSPYSGVSNYNQKFKGRVTMTRDTSTSTVYMELSSLRSEDTAVYYCARFDNYDRGYVRDYWGQGTLVTVS VL: DIVMTQSPDSLAVSLGERATINCRASESVDNDRISFLNWYQQKPGQPPKLLIYAATKQGTGVPDRFSGSGSGTDFTLTISSLQAEDVAVYYCQGSKEFPWSFGGGTKVEIKR | 0.09 A450 |  |  | 
2 | 6G light chain variant 6E (E97P) (antibody, V domains shown) VH: QVQLVQSGAEVKKPGASVKVSCKASGYTFTTYAIHWVRQAPGQGLEWMGFTSPYSGVSNYNQKFKGRVTMTRDTSTSTVYMELSSLRSEDTAVYYCARFDNYDRGYVRDYWGQGTLVTVS VL: DIVMTQSPDSLAVSLGERATINCRASESVDNDRISFLNWYQQKPGQPPKLLIYAATKQGTGVPDRFSGSGSGTDFTLTISSLQAEDVAVYYCQQSKPFPWSFGGGTKVEIKR | 0.12 A450 |  |  | 
3 | 6G light chain variant 7E (Q94R) (antibody, V domains shown) VH: QVQLVQSGAEVKKPGASVKVSCKASGYTFTTYAIHWVRQAPGQGLEWMGFTSPYSGVSNYNQKFKGRVTMTRDTSTSTVYMELSSLRSEDTAVYYCARFDNYDRGYVRDYWGQGTLVTVS VL: DIVMTQSPDSLAVSLGERATINCRASESVDNDRISFLNWYQQKPGQPPKLLIYAATKQGTGVPDRFSGSGSGTDFTLTISSLQAEDVAVYYCQRSKEFPWSFGGGTKVEIKR | 0.09 A450 |  |  | 
4 | 9TL variant M47 Fab (Fab, V domains shown, Fab; human IgG2 CH1 and kappa CL) VH: QVQLVQSGAEVKKPGASVKVSCKASGYYTEAYYIHWVRQAPGQGLEWMGRIDPATGNTKYAPRLQDRVTMTRDTSTSTVYMELSSLRSEDTAVYYCASLYSLPQYWGQGTTVTVSS VL: DVVMTQSPLSLPVTLGQPASISCKSSQSLLYSDAKTYLNWFQQRPGQSPRRLIYQISRLDPGVPDRFSGSGSGTDFTLKISRVEAEDVGVYYCLQGTHYPVLFGQGTRLEIKR |  | 318000 M⁻¹ s⁻¹ | 62.9 nM | 0.02 s⁻¹
5 | 9TL variant M49 Fab (Fab, V domains shown, Fab; human IgG2 CH1 and kappa CL) VH: QVQLVQSGAEVKKPGASVKVSCKASGYYTEAYYIHWVRQAPGQGLEWMGRIDPATGNTKYAPRLQDRVTMTRDTSTSTVYMELSSLRSEDTAVYYCASLYSLPNYWGQGTTVTVSS VL: DVVMTQSPLSLPVTLGQPASISCKSSQSLLYSDAKTYLNWFQQRPGQSPRRLIYQISRLDPGVPDRFSGSGSGTDFTLKISRVEAEDVGVYYCLQGTHYPVLFGQGTRLEIKR |  | 318000 M⁻¹ s⁻¹ | 81.8 nM | 0.026 s⁻¹
6 | 9TL variant W8 Fab (Fab, V domains shown, Fab; human IgG2 CH1 and kappa CL) VH: QVQLVQSGAEVKKPGASVKVSCKASGYYTEAYYIHWVRQAPGQGLEWMGRIDPATGNTKYAPRLQDRVTMTRDTSTSTVYMELSSLRSEDTAVYYCASLYSLPVYWGQGTTVTVSS VL: DVVMTQSPLSLPVTLGQPASISCKSSQSLLHSDSATYLNWFQQRPGQSPRRLIYQISRLDPGVPDRFSGSGSGTDFTLKISRVEAEDVGVYYCLQGTHYPVTFGQGTRLEIKR |  | 318000 M⁻¹ s⁻¹ | 11.9 nM | 0.0038 s⁻¹
7 | 9TL variant M55 Fab (Fab, V domains shown, Fab; human IgG2 CH1 and kappa CL) VH: QVQLVQSGAEVKKPGASVKVSCKASGYYTEAYYIHWVRQAPGQGLEWMGRIDPATGNTKYAPRLQDRVTMTRDTSTSTVYMELSSLRSEDTAVYYCASLYSLPVIWGQGTTVTVSS VL: DVVMTQSPLSLPVTLGQPASISCKSSQSLLYSDAKTYLNWFQQRPGQSPRRLIYQISRLDPGVPDRFSGSGSGTDFTLKISRVEAEDVGVYYCLQGTHYPVLFGQGTRLEIKR |  | 318000 M⁻¹ s⁻¹ | 9.43 nM | 0.003 s⁻¹
8 | 9TL variant M52 Fab (Fab, V domains shown, Fab; human IgG2 CH1 and kappa CL) VH: QVQLVQSGAEVKKPGASVKVSCKASGYYTEAYYIHWVRQAPGQGLEWMGRIDPATGNTKYAPRLQDRVTMTRDTSTSTVYMELSSLRSEDTAVYYCASLYSLPVFWGQGTTVTVSS VL: DVVMTQSPLSLPVTLGQPASISCKSSQSLLYSDAKTYLNWFQQRPGQSPRRLIYQISRLDPGVPDRFSGSGSGTDFTLKISRVEAEDVGVYYCLQGTHYPVLFGQGTRLEIKR |  | 318000 M⁻¹ s⁻¹ | 4.09 nM | 0.0013 s⁻¹
9 | 9TL variant M50 Fab (Fab, V domains shown, Fab; human IgG2 CH1 and kappa CL) VH: QVQLVQSGAEVKKPGASVKVSCKASGYYTEAYYIHWVRQAPGQGLEWMGRIDPATGNTKYAPRLQDRVTMTRDTSTSTVYMELSSLRSEDTAVYYCASLYSLPFYWGQGTTVTVSS VL: DVVMTQSPLSLPVTLGQPASISCKSSQSLLYSDAKTYLNWFQQRPGQSPRRLIYQISRLDPGVPDRFSGSGSGTDFTLKISRVEAEDVGVYYCLQGTHYPVLFGQGTRLEIKR |  | 318000 M⁻¹ s⁻¹ | 84.9 nM | 0.027 s⁻¹
10 | 9TL variant M54 Fab (Fab, V domains shown, Fab; human IgG2 CH1 and kappa CL) VH: QVQLVQSGAEVKKPGASVKVSCKASGYYTEAYYIHWVRQAPGQGLEWMGRIDPATGNTKYAPRLQDRVTMTRDTSTSTVYMELSSLRSEDTAVYYCASLYSLPVSWGQGTTVTVSS VL: DVVMTQSPLSLPVTLGQPASISCKSSQSLLYSDAKTYLNWFQQRPGQSPRRLIYQISRLDPGVPDRFSGSGSGTDFTLKISRVEAEDVGVYYCLQGTHYPVLFGQGTRLEIKR |  | 318000 M⁻¹ s⁻¹ | 7.55 nM | 0.0024 s⁻¹
11 | 9TL variant M56 Fab (Fab, V domains shown, Fab; human IgG2 CH1 and kappa CL) VH: QVQLVQSGAEVKKPGASVKVSCKASGYYTEAYYIHWVRQAPGQGLEWMGRIDPATGNTKYAPRLQDRVTMTRDTSTSTVYMELSSLRSEDTAVYYCASLYSLPVVWGQGTTVTVSS VL: DVVMTQSPLSLPVTLGQPASISCKSSQSLLYSDAKTYLNWFQQRPGQSPRRLIYQISRLDPGVPDRFSGSGSGTDFTLKISRVEAEDVGVYYCLQGTHYPVLFGQGTRLEIKR |  | 318000 M⁻¹ s⁻¹ | 11 nM | 0.0035 s⁻¹
12 | 9TL variant M53 Fab (Fab, V domains shown, Fab; human IgG2 CH1 and kappa CL) VH: QVQLVQSGAEVKKPGASVKVSCKASGYYTEAYYIHWVRQAPGQGLEWMGRIDPATGNTKYAPRLQDRVTMTRDTSTSTVYMELSSLRSEDTAVYYCASLYSLPVWWGQGTTVTVSS VL: DVVMTQSPLSLPVTLGQPASISCKSSQSLLYSDAKTYLNWFQQRPGQSPRRLIYQISRLDPGVPDRFSGSGSGTDFTLKISRVEAEDVGVYYCLQGTHYPVLFGQGTRLEIKR |  | 318000 M⁻¹ s⁻¹ | 4.09 nM | 0.0013 s⁻¹
13 | 9TL variant W5 Fab (Fab, V domains shown, Fab; human IgG2 CH1 and kappa CL) VH: QVQLVQSGAEVKKPGASVKVSCKASGYYTEAYYIHWVRQAPGQGLEWMGRIDPATGNTKYAPRLQDRVTMTRDTSTSTVYMELSSLRSEDTAVYYCASLYSLPVYWGQGTTVTVSS VL: DVVMTQSPLSLPVTLGQPASISCKSSQSLLHSDAATYLNWFQQRPGQSPRRLIYQISRLDPGVPDRFSGSGSGTDFTLKISRVEAEDVGVYYCLQGTHYPVTFGQGTRLEIKR |  | 318000 M⁻¹ s⁻¹ | 12.6 nM | 0.004 s⁻¹
14 | 9TL variant M48 Fab (Fab, V domains shown, Fab; human IgG2 CH1 and kappa CL) VH: QVQLVQSGAEVKKPGASVKVSCKASGYYTEAYYIHWVRQAPGQGLEWMGRIDPATGNTKYAPRLQDRVTMTRDTSTSTVYMELSSLRSEDTAVYYCASLYSLPSYWGQGTTVTVSS VL: DVVMTQSPLSLPVTLGQPASISCKSSQSLLYSDAKTYLNWFQQRPGQSPRRLIYQISRLDPGVPDRFSGSGSGTDFTLKISRVEAEDVGVYYCLQGTHYPVLFGQGTRLEIKR |  | 318000 M⁻¹ s⁻¹ | 81.8 nM | 0.026 s⁻¹
15 | 9TL variant M51 Fab (Fab, V domains shown, Fab; human IgG2 CH1 and kappa CL) VH: QVQLVQSGAEVKKPGASVKVSCKASGYYTEAYYIHWVRQAPGQGLEWMGRIDPATGNTKYAPRLQDRVTMTRDTSTSTVYMELSSLRSEDTAVYYCASLYSLPVHWGQGTTVTVSS VL: DVVMTQSPLSLPVTLGQPASISCKSSQSLLYSDAKTYLNWFQQRPGQSPRRLIYQISRLDPGVPDRFSGSGSGTDFTLKISRVEAEDVGVYYCLQGTHYPVLFGQGTRLEIKR |  | 318000 M⁻¹ s⁻¹ | 2.7 nM | 0.00086 s⁻¹
16 | 9TL variant W1 Fab (Fab, V domains shown, Fab; human IgG2 CH1 and kappa CL) VH: QVQLVQSGAEVKKPGASVKVSCKASGYYTEAYYIHWVRQAPGQGLEWMGRIDPATGNTKYAPRLQDRVTMTRDTSTSTVYMELSSLRSEDTAVYYCASLYSLPVYWGQGTTVTVSS VL: DVVMTQSPLSLPVTLGQPASISCKSSQSLLASDSKTYLNWFQQRPGQSPRRLIYQISRLDPGVPDRFSGSGSGTDFTLKISRVEAEDVGVYYCLQGTHYPVTFGQGTRLEIKR |  | 318000 M⁻¹ s⁻¹ | 28.3 nM | 0.009 s⁻¹
